Measurements reported in publication PMC2580030.
“And” between values parts separate entries of the source, which are not always exact repeats. Equal entries are not always repeated.

These substances were tested against recombinant soluble empty (peptide free) HLA-DR1 (human) (assay: native gel or EMSA).

Row | Substance | t1/2 [min]
1 | HA 306-318 P2,3 VK→SD peptide, fluorescein-labeled | 4.6
2 | HA 306-318 P2,7 VL→SP peptide, fluorescein-labeled | 40.4
3 | HA 306-318 P2,7,10 VLA→SPG peptide, fluorescein-labeled | 9.9
4 | HA 306-318 P2,10 VA→SG peptide, fluorescein-labeled | 11.7
5 | HA 306-318 P3 K→D peptide, fluorescein-labeled | 43.8
6 | HA 306-318 P3,7 KL→DP peptide, fluorescein-labeled | 15.9
7 | HA 306-318 P3,10 KA→DG peptide, fluorescein-labeled | 7.92
8 | HA 306-318 P7 L→P peptide, fluorescein-labeled | 268
9 | HA 306-318 P7,10 LA→PG peptide, fluorescein-labeled | 92.9
10 | HA 306-318 P10 A→G peptide, fluorescein-labeled | 69

Each substance was assayed against recombinant soluble empty (peptide free) HLA-DR1 (human) (assay: fluorescence polarisation).

Row | Substance | loss of bound peptide during the first 24 hr
11 | FAM labeled P7 L→C HA peptide | 18% and 3%
